In patent publication US12576141B2 (AlbuNext, LLC, priority 2023, dated 2026):

Experiments:
GLP-1 receptor = GLP-1 receptor (Homo sapiens, UniProt P43220); conditions: cited from earlier work
[1] = suitable for once weekly dosing; cited from earlier work
[2] = monotherapy, cited from earlier work
Cys34 of rat albumin = target: T1, Cys34 of rat albumin (Rattus norvegicus, UniProt P02770); test: electrophoresis of plasma samples from injected rats (translocation to rat albumin); type: in vivo
T1 construct: plasma samples collected from the rats that were injected s.c. and i.v; from tissue; host or cells: rat plasma (in vivo, circulating albumin)
Procedure: To further investigate the apparent inconsistencies supplementary electrophoresis experiments were conducted on the plasma samples collected from the rats that were injected s.c. and i.v. as noted above, and exemplary results are depicted in FIG. 30. As can be readily seen in the gel image, when conformationally unmodified AB-013 is tested in an electrophoresis experiment only one band is observed in the area where an albumin-exendin-4 MPA covalent construct would be observed. Completely unexpectedly, all time points taken during the experiment, including the earliest ones, had two bands in the area related to an albumin-exendin-4 MPA covalent construct.
This initial observation was further supported when a dynorphin-A-MPA peptide was injected intravenously to rats. Importantly, this dynorphin-A-MPA peptide was not conjugated to human albumin or any other type of albumin. […] In a similar fashion, the dynorphin-A-MPA peptide was also conjugated to human conformationally unmodified albumin in vitro to form a covalent bond between it and the Cys34 of human albumin. The dynorphin a human albumin covalent construct was injected intravenously to rats.

T1 sequence (P02770 25-608): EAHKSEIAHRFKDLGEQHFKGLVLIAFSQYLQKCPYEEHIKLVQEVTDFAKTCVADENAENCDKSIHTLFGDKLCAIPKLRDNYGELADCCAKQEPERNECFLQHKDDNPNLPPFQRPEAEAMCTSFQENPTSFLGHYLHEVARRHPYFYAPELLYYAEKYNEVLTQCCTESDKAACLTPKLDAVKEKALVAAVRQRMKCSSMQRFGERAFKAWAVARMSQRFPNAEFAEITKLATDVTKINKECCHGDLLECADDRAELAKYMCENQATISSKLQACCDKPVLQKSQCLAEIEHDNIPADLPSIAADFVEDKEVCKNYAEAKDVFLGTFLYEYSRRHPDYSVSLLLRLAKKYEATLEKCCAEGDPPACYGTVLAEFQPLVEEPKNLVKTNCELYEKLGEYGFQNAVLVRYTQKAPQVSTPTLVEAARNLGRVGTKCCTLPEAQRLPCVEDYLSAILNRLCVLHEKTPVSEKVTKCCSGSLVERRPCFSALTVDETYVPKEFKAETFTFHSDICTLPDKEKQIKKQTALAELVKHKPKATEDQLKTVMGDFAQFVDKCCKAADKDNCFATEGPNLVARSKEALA
Sequence of GLP-1 receptor (P43220 24-463, species assumed): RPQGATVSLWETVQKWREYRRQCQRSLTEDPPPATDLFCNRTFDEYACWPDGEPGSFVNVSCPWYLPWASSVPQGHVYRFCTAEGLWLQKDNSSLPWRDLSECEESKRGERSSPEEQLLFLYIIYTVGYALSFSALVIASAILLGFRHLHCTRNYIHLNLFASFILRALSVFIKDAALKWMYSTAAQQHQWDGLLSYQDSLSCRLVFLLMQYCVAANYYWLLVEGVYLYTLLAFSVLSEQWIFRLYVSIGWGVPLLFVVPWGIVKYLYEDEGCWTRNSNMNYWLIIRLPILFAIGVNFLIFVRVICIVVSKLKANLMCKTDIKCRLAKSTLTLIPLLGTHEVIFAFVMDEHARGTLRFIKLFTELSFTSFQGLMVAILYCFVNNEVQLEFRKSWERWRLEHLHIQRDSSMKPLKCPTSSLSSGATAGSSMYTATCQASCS

Substance | GLP-1 receptor affinity (GLP-1 receptor) | half-life [1] | decrease in HbA1c from baseline ([2]; 30 mg weekly dose, week 52) | change from baseline of HbA1c ([2]; 50 mg weekly dose) | bands on electrophoresis gel in the area of the albumin covalent construct (Cys34 of rat albumin; rat plasma, all time points) | bioconjugation in vivo with rat albumin (Cys34 of rat albumin; rats, intravenous, peptide not conjugated to albumin)
albiglutide: albumin fusion protein in which a tandem repeat of Gly8 GLP-1 is fused to N-terminus of human serum albumin | 20 nM | 6 to 8 days | −0.7% | −0.9% | – | –
dynorphin-A-MPA peptide: dynorphin-A-MPA peptide not conjugated to any albumin, injected for in vivo bioconjugation | – | – | – | – | only one band | did indeed occur
